Test: yeast display, Sf9 membrane polyspecificity reagent, FACS + sequencing; frameworks hold sequencing errors
In short: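 After 36–48 hours of galactose induction, yeast (Saccharomyces cerevisiae BJ5465) displaying a synthetic nanobody library were stained at 4 °C for 1 hour with 10% biotinylated, detergent-solubilized Sf9 membrane reagent. Streptavidin microbeads enriched the stained cells before FACS sorting into low and high (top ~1%) gates on anti-HA and streptavidin fluorescence. Each clone's polyreactivity label reflects its gate of origin.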

Sequence	polyreactivity (PSR sort gate)
QVQLVESGGGLVQAGGSLRLSCAASGRTFGLYAMGWYRQAPGKERELVAAISSGVSTNYADSVKGRFTISRDNAKNTVYLQMNSLKPEDTAVYYCAAKNYYPRVNYWGQGTQVTVSS	high polyreactivity
QVQLVESGGGLVQAGGSLRLSCAASGRTFEGNAMGWYRQAPGKERELVAAINSSGGSTYYADSVKGRFTISRDNAKNTVYLQMNSLKPEDTAVYYCNAVAGPQGVKLYDYWGQGTQVTVSS	low polyreactivity
QVQLVESGGGLVQAGGSLRLSCAASGYTFTIYAMGWYRQAPGKERELVASISIDGSTYYADSVKGRFTISRDNAKNTVYLQMNSLKREDTAVYYCAADYYYYTPGFDYWGQGTQVTVSS	low polyreactivity
QVQLVESGGGLVHAGGSLRLSCAASGMTFTKNVMGWYRQSPGKERELVAVISRSGGSTYYADSVKGRFTISRDNAKNTVYLQMNSLKPEDTAVYYCNVKGPGPSRGNYWGQGTQVTVSS	low polyreactivity
QVQLVESGGGLVQAGGSLRLSCAASGRILRDYDMGWYRQATGKERELVAAINWSDGSTYYADSVKGRFTISRDNAKNTVYLQMNSLKPEDTAVYYCAASRWRPLERGTTWLNDYWGQGTQVTVSS	low polyreactivity
QVQLVESGGGLVQAGGSLRLSCAASGSIFVTNAMGWYRQAPGKERELVAAISVSGGSTYYADSEKGRITISRDNAKNTVYLQMNRLKAEDTAGYYCNARQVFTTAGREMDYWGQGTQVTVSS	low polyreactivity
QVQLVESGGGLVQAGGSLRLSCAASGRTFTYNAMGWYRQAPGKERELVASIRRSGTITYYADSVKGRFTISRDNAKNTVYLQMNSLKPEDTAVYYCAARYPWYRYYSWGQGTQVTVSS	high polyreactivity
QVQLVESGVGLVQAGGSLSLSCAASGTFVLYAMGWYRQAPGKERELVAAISKTGRTYYADSVKGRFTISRDNAKNTVYLQMNSLKPEDTAVYYCAAQRFSKFGYWGQGTQVTVSS	high polyreactivity
QVQLVESGGGLVQAGGSLRLSCAGSGSTLTWNDMGWYRHAPGKERELVASITQSGDSTYYADSVKGRFTISRDNAKNTVYLQMNSLKPEDTAVYYCSGVYTYPLGYYHYTYDYWGQGTQVTVSS	low polyreactivity
QVQLVESGGGLVQAGGSLRLSCAASGRIFPRYALGGYRQAPGKERELVAGISRSGGSTYYADSVKGRFTISRDNAKNTVYLQMNSLKPEDTAVYYCNTGGHYGARKYDYWGQGTQVTVSS	low polyreactivity
QVQLVESGGGLVQAGGSLRLSCAASGRTFYYNAMGSYRQAPGKEREFVAAITWSGTRTYYADSVKGRFTISRDNAKNTVYLQMNSLKPEDTAVYYCAARRGVQGTQYYYWGQGTQVTVSS	high polyreactivity
QVQLVESGGRLVQAGGSLRLSCAASGSTFYTNAMGWYRQSPGKEMELVAAITSNGDSTYYADSVKGRFTISRDNAKNTVYLQMNSLKPEDTAVYYCAAREFYGGYDNNYDYWGQGTQVTVSS	low polyreactivity
QVQLVESGGGLVHAGGSLRLSCAASGRTLKYYAMGWYRQAPGKERELVAAISGGDSTYYADSVKGRFTISRDNAKNTVYLQMNSLKPEDTAVYYCNARRFIWWYPYLRDYWGQGTQVTVSS	high polyreactivity
QVQLVESGGGLVQAGGSLRLSCAASGRIFSWNAMGWYRQAPGKERELVARITWNGGRTYYADSVKGRFTISRDNAKNTVYLQMNSLKPEDTAVYYCNAERFDLTYNYWGQGTQVTVSS	high polyreactivity
QVQLVESGGALDQAGGSLRLICAASGRIFWYNAMGWYRQAPGKERELVAGIRSGGSTNYADSVKGRFTISRDNAKNPVYLQMNSLKPEDTAVYYCAARRWRTQDRSHFYYWGQGTQVTVSS	low polyreactivity
QVQLVESGGGLVQAGGSLRLSCAASGLTFVPYAMGWSRQAPGNERELFAAITWSGGSTYYADSVKGRFTISRDNAKNTVYLQMNSLKQEDTAVYYCAADFLLSTSTEYYYWGHGTQVTVSS	high polyreactivity
QVQLVESGGGLVQAGGSLRLSCAASGFIFYKNAMGWYRQAAGKERELVASITRTGDSTNYADSVKGRFTISRDNPKNTVYLQLNSLKPEDTAVYYCAKVLRRWPDPAGGMDYWGQGTQVTVSS	high polyreactivity
QVQLVESGGGLVQAGGSLRLSCAASGLTFTKNVMGWYRQAPGKERELVAVISRSGGSTYYADSVKGRFTISRDNAKNTVYLQMNSLKPEDTAVYYCNVKGPGPSRGNYWGQGTQVTVSS	low polyreactivity
QVQLGESGGGLVQAGGSLRLSCAASGIIFYRYAMGWYRQAPGKERELVAAITWSGVSTSYADSVKGRFTISRDNAKNTVYLQMNSLKQEDTAVYYCNKDPGTLYGDMDSWGQGTQVTVSS	low polyreactivity
QVQLVESGGGLVQAGGSLRLSCAASGSTFYKYAMGWYRQAPGKERELVASISRSGGSTSYADSVKGRFTISRDNAKNTVYLHMNSLIPEDTAVYYCAATWRQHPGSMGYWGQGTQVTVSS	high polyreactivity
QVQLVESGGGLVQAGGSLRLSCAASGRIFPFYVMGWYRQAHGKERELVATINWSGGSTYYADSVKGRFTISRDNAKNTVYLQMNRLKPEDTAVYYCNGAPSDDYDYWGQGTQVTVSS	low polyreactivity

Sequence	polyreactivity (PSR sort gate)
QVHLVESGGGLVQAGGSLRLSCAASGRTFDINAMGWYRQAPGKERELVAAISSRGGTTFYADSVKGRFTISRDHAKNTVYLQMNSLKPEDTAVYYCAAEYSSYYTRGGSYNYWGQGTQVTVSS	low polyreactivity
QVQLVESGGGLVQPGGSLRLSCAASGSTLRRNAMGWYRQATRIERELVSAITGSRGSTYYADSVKGRFTISLDNAKNTVYLQMNCLKPEDTAVYYCAALYYYHLLPSRYYRFVYWGQGTQVTVSS	high polyreactivity
QFQLVESGGGLVQAGASLRLSSAASGSTFVFYAMGWYRQAPGKERELVATISTGVSTYADSVKGRFTISRDNAKNTVYLQMNSLKPEDTAVYYCAADSLFGHYDYSGQGTQVTVSS	low polyreactivity
QVQLVESGVGLVQAGGSLRLSCAASGLIFYRYAMGWNRQAPGKERELVAAISWSGGTTYYADSVKGRFTISRDNAKNTVYLQMNSLKPEDTAVYYCAATRLRTEYYWGQGTQVTVSS	high polyreactivity
QVQLVESGGGLVQAGGSLRLSCAASGRIFYRNAMGWYRQAPVKERELVASITWRGGRTYYADSVKGRFTISRDNAKNTVYLQMNSLKQEDTAVYYCNAAPRTYNAWDFDYWGQGTQVTVSS	high polyreactivity
QVQLVESGGGLVQAGGSLRLSCASSGSTFYWNGMGWYRQAPGKERDLVADITWSGTSTNYADSVKGRFTISRDNAKNTVYLQMNSLKPEDTAVYYCAVSDFGLRDSLTIYDEYDYWGQGTQVTVSS	high polyreactivity
QVQLVESGGGLVQAGGSLRLSCAASGLIFDKYAMGWYRQAPGKERELVAAITRSSGTTYYADSVKGSFTISRDNAKNTVYLQMNSLKPEDTAVYYCATDVDKSLYDYWGQGTQVTVSS	low polyreactivity
QVQLVESGGGLVQAGARLRLSCAASVSTFQSNAMGWSRQAPGKERELVAAIDQSGGSTYYADSLKGRFTISRDNAKNTVYLQMNSLKPEYTAVYYCAARTSGYWFSYGSWGQGTQVTVSS	high polyreactivity
QVQLVESGGGLVQAGGSLRLSCAASGIIFVYYAMGWYRQAPGKERELVAAISTRGGSTYYADSVKGRFTISRDNAKNTVYLQMNSLKPEDTAVYYCAATYVYRYVPRIPSEAYDYWGQGTQVTVSS	high polyreactivity
QVQLVESGGGLVQAGGSLRLSCAASGSIFYLYAMGWYRQAPGKERELVAAITSIGGSTYADSVKGRFTISRDNAKNTVYLQMNSLKPEDTAVYYCNADGLYEKWGPWTVPYYYWGQGTQVTVSS	low polyreactivity
QVQLVETGGGLVQAGGSLRLSCAASGSIFYPNAMGWYRQAPGKERELVAAISSSGGTNYADSVKGRFTISRDNAKNTVYLQMNSLKPEDTAVYYCNARDKVRYRYSRMDYWGQGTQVTVSS	low polyreactivity
QVQLVESGGGLVQAGGSLRLSCAASGSTFDTYAMGWYRQAPGKERELVATITNSVGNTYYADSVKGRFTISRDNAKNTVYLQMNSLKPEDTAVYYCAAETVYILAPGYYDYDYWGQGTQVTVSS	low polyreactivity
QDQLVDSGGGLVQAGGSLRLSCAASGFTLAYNTMGWYRQAPGKERELVASITSSGSSTYYADSEKGRFTITRDNGKYNVYLEMNSLKPEDTAVYYFNKVRPRKFWDYYYWGQGTQVTVSS	high polyreactivity
QVQLVESGGGLDQAGGSLRLSCAASGSTFDSNTMGRSRQAPGKERELDAAITVSGGSTHYADSVKGRFTISRDNAKNTVYLQMNSLKPEDTAVYYCNRRSYGYGAFSGYDYWGQGTQVTVSS	low polyreactivity
QVQLVESGGGLVQAGGSLRLSCAASGRTFVQNAMGWYRQAPGKERELVASIRYRDGSTYYADSVKGRFTISRDNAKNTVYLQMNSLKPEDTAVYYCAAYLPGWELREYGYWGQGTQVTVSS	high polyreactivity
QVQLLESGGGLVQAGGSLRLSCAASGLTFPLYAMGWYRQAPGKERELVAAINWSGGSTYYADSVKGRFTISRDKAKNTVYLQMNSLKPEDTAVYYCAAARSSLYYYWGQGTQVTVSS	high polyreactivity
QVQLVESGGALVQAGGSLRLSCAASGSTIGDNAMGWYRQAPGKERELVASISWSGASTYYADSVKGRFTISRDNAKNTFYLPMKSLKPEETEVYYCAVYYSYFSHLYHLLFYYWGQGTQVTVSS	low polyreactivity
QVQLVESGGGLVQAGGSLRLSCAASGRTFRPYAMGWYRQAPGKERELVAAISSRGSSTYYADSVKGRFTISRDNAKNNVYLQMNSLKPEDTAVYYCAARSYWGGLRYDYWGQGTQVTVSS	high polyreactivity
QVQLVESGGGLVQAGGSLRLSCAASGNTFHSYVMGWYRQAPGKERELVAAITSGGSTYYADSVKGRFTISRDNAKNTVYLQMNSLKPEDTAVYYCAVDAWTGESYWEHYYWGQGTQVTVSS	low polyreactivity
QGQLVESGGGLVQAGGSLRLSCAAAGFTFGSYAMGWYRHAPGKERELFARISSDGSTNYADSVKGRFTISSDNAKNTVYLQMNSLKPEDTAVYYCNADRQYTCSLVFFSSDYDYWGLGTQVTVSS	low polyreactivity

— the nanobody polyreactivity screen of Harvey et al. (2022)
